Laboratory results as given in patent US20230050846A1, “TREATMENT OF HEPATIC AND CARDIOVASCULAR DISORDERS” (LIFESEARCH, priority 2019, published 2023).

Target: cell surface F1Fo-ATPase (human)
Assay: cell-based or functional assay

apoA-I purified from human plasma (from UniProt P02647 25-267) (ligand)
HDL endocytosis by HepG2 cells (HDL-Alexa568 uptake), apoA-I 10 µg/mL, versus non-stimulated cells: 45%
